Results published in patent US7354734B2, “Fungal proteins and nucleic acids encoding same” (priority 2003, dated 2008).
“Also recorded” adds a separate entry of the source. Like-named read-outs stand apart in the source and are kept apart here.

Assays:
[1] = test system: gliadin 14mer PQPQLPYPQPQLPY (fragment 82-95 of α/β gliadin AIV); format: biochemical, wheat; conditions: for digestion of gliadin 14mer, enzyme alone: 4 h, 37° C.
[2] = test system: gliadin 33mer (fragment 57-89 of gliadin MM1); assay: Digestion of gliadin 33mer (RP-HPLC, ESI-MS); format: biochemical, wheat; conditions: 37° C.
ruLAP1 = ruLAP1 (Trichophyton rubrum, UniProt Q5QHG5); format: biochemical
Sequence of ruLAP1 (Q5QHG5 21-373): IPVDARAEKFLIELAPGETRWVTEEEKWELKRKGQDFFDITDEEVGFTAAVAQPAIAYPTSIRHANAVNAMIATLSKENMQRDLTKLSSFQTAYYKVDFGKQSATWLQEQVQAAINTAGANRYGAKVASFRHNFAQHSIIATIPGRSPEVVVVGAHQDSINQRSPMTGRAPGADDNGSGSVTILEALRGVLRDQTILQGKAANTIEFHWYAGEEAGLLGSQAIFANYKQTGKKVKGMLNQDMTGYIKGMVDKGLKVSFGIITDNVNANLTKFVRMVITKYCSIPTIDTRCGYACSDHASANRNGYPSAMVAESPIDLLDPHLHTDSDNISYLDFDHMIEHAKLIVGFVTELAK

ruLAP2 = ruLAP2 (Trichophyton rubrum, UniProt Q5QHG6); format: biochemical; conditions: for effect of inhibitor on ruLAP2 activity: Leu-AMC 5 mM
fuLAP1 = fuLAP1 (Aspergillus fumigatus, UniProt Q5VJG6); assay: biochemical; format: biochemical; conditions: for effect of inhibitor on fuLAP1 activity: Leu-AMC 5 mM
Sequence of fuLAP1 (Q5VJG6 16-388): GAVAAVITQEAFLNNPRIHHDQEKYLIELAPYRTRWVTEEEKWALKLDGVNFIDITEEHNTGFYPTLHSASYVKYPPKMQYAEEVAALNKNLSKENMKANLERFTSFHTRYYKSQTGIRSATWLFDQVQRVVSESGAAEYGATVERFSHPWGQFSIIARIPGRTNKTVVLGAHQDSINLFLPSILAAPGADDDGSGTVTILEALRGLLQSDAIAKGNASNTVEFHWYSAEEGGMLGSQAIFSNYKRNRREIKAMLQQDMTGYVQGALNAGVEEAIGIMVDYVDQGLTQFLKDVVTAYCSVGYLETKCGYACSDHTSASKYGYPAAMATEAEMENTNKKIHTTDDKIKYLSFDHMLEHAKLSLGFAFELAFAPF

fuLAP2 = format: biochemical, Aspergillus fumigatus; conditions: for effect of inhibitor on fuLAP2 activity: Leu-AMC 5 mM
[3] = target: T1, pkLAP (microsomal LAP from porcine kidney) (Sus scrofa, UniProt P15145); assay: Effect of inhibitors and metallic cations on LAP activity (Leu-AMC); format: biochemical; conditions: for effect of inhibitor on pkLAP activity: Leu-AMC 5 mM
T1 construct: purchased Sigma; host or cells: porcine kidney
T1 sequence (P15145 1-963): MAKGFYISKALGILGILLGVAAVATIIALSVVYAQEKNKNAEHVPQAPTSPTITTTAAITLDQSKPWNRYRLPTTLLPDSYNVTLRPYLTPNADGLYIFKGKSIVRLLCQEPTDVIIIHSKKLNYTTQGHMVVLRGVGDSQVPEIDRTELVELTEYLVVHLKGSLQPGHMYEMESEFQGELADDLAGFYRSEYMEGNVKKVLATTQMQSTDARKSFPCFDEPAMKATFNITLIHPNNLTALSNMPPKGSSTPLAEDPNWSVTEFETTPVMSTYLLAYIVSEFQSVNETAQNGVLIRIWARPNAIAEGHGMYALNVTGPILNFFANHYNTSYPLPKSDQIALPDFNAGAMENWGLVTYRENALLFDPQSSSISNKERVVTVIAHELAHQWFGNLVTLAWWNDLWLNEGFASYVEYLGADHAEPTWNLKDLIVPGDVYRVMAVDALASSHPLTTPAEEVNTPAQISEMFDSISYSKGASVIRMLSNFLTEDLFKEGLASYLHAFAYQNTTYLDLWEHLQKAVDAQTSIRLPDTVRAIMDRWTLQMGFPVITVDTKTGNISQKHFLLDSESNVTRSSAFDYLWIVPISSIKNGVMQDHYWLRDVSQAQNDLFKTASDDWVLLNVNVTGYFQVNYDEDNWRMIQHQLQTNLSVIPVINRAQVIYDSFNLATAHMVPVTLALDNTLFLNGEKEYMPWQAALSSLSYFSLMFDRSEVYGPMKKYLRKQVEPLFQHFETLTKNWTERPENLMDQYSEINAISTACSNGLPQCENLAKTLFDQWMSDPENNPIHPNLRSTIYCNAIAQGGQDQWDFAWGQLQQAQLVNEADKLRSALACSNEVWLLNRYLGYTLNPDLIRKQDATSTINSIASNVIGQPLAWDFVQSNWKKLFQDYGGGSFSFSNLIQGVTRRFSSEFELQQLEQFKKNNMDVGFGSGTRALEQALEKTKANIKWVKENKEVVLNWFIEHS

[4] = test system: T. rubrum secreted proteolytic activity; assay: Inhibition of T. rubrum secreted proteolytic activity (resorufin-labeled casein); format: biochemical, Trichophyton rubrum; conditions: T. rubrum culture medium, resorufin-labeled casein as substrate
Method: The proteolytic activity was measured using resorufin-labeled casein in phosphate buffer (20 mM; pH 7.4). The reaction mixture contained 0.02% substrate in a total volume of 0.5 ml. After incubation at 37° C., the undigested substrate was precipitated by trichloroacetic add (4% final concentration) and separated from the supernatant by centrifugation. The absorbance at 574 nm of the supernatant was measured after alkalinization by adding 500 μl Tris buffer (500 mM; pH 9.4). For practical purposes, one unit (U) of proteolytic activity was defined as that producing an absorbance of 0.001 per min.
T. rubrum was grown at 30° C. in a medium containing 0.2% soy protein as a sole carbon and nitrogen source. After 14 days of growth, a concomitant clarification of the culture medium was noted and a substantial proteolytic activity (400 U ml^−1) detected using resorufin-labeled casein as substrate. This proteolytic activity was 15% and 85% inhibited by PMSF and ortho-phenanthroline, respectively, attesting that serine and metalloproteases were secreted by T. rubrum. […] In addition, a high activity on substrates such as Leu-AMC and Leu-pNA was detected in the T. rubrum culture supernatant.

[5] = format: biochemical
[6] = format: biochemical; conditions: substrate Lys(Abz)Pro-PropNA 5 mM, 37° C., 60 min
Gly-Ser-proNPY = assay: Digestion of Gly-Ser-proNPY; format: biochemical; conditions: overnight 37° C., 1 mM CoCl2, E/S 1:20
Excerpt: The digested material was isolated by RP-HPLC and characterized by ESI-MS. […] The same result is obtained at an 1:[…] ratio. Digestion halts when the enzyme reaches a Xaa-Pro-motif, which in case of proNPY is Tyr-Pro.

Ala-proNPY = assay: Digestion of Ala-proNPY; format: biochemical; conditions: conditions as for Gly-Ser-proNPY
Method: The digested material was isolated by RP-HPLC and characterized by ESI-MS. […] The same result is obtained at an 1:[…] ratio. Digestion halts when the enzyme reaches a Xaa-Pro-motif, which in case of proNPY is Tyr-Pro. Conditions of incubation were the same as for Gly-Ser-proNPY.

[7] = inhibitor 40 μM, Leu-MCA substrate, 15 min pre-incubation

ruDPPIV: T. rubrum dipeptidylpeptidase IV (SEQ ID NO: 35)
digestion of gliadin 14mer, enzyme alone [1]: not able to hydrolyse
digestion of gliadin 33mer, enzyme alone [2]: not a substrate

O=S(=O)(F)Cc1ccccc1 [PMSF]
effect of inhibitor on ruLAP1 activity (ruLAP1): no clear inhibitory effects
ruLAP1 activity as percentage of control reaction without inhibitor (ruLAP1; 40 µM): 78%
effect of inhibitor on ruLAP2 activity (ruLAP2): no clear inhibitory effects
ruLAP2 activity as percentage of control reaction without inhibitor (ruLAP2; [7]): 79%
effect of inhibitor on fuLAP1 activity (fuLAP1): no clear inhibitory effects
fuLAP1 activity as percentage of control reaction without inhibitor (fuLAP1; [7]): 156%
effect of inhibitor on fuLAP2 activity (fuLAP2): no clear inhibitory effects
fuLAP2 activity as percentage of control reaction without inhibitor (fuLAP2; [7]): 84%
effect of inhibitor on pkLAP activity [3]: no clear inhibitory effects
pkLAP activity as percentage of control reaction without inhibitor [3, 7]: 58%
inhibition of proteolytic activity [4]: 15%

c1cnc2c(c1)ccc1cccnc12 [ortho-phenantroline, ortho-phenanthroline]
effect of inhibitor on ruLAP1 activity (ruLAP1; Leu-AMC 5 mM): totally inhibited
effect of inhibitor on ruLAP2 activity (ruLAP2): totally inhibited
effect of inhibitor on fuLAP1 activity (fuLAP1): totally inhibited
effect of inhibitor on fuLAP2 activity (fuLAP2): totally inhibited
effect of inhibitor on pkLAP activity [3]: totally inhibited
inhibition of proteolytic activity [4]: 85%

B1: ruLAP2: T. rubrum leucine aminopeptidase, 495 amino acid residues (SEQ ID NO: 3) (protein, listed as Trichophyton rubrum)
chain: MKSQLLSLAVAVTTISQGVVGQEPFGWPFKPMVTQDDLQNKIKLKDIMAGVEKLQSFSDAHPEKNRVFGGNGHKDTVEWIYNEIKATGYYDVKKQEQVHLWSHAEAALNANGKDLKASAMSYSPPASKIMAELVVAKNNGCNATDYPANTQGKIVLVERGVCSFGEKSAQAGDAKAAGAIVYNNVPGSLAGTLGGLDKRHVPTAGLSQEDGKNLATLVASGKIDVTMNVISLFENRTTWNVIAETKGGDHNNVIMLGAHSDSVDAGPGINDNGSGSIGIMTVAKALTNFKLNNAVRFAWWTAEEFGLLGSTFYVNSLDDRELHKVKLYLNFDMIGSPNFANQIYDGDGSAYNMTGPAGSAEIEYLFEKFFDDQGIPHQPTAFTGRSDYSAFIKRNVPAGGLFTGAEVVKTPEQVKLFGGEAGVAYDKNYHRKGDTVANINKGAIFLNTRAIAYAIAEYARSLKGFPTRPKTGKRDVNPQYSKMPGGGCGHHTVFM
hydrolytic activity toward Asp-AMC ([5]; compared to Leu-AMC): efficiently cleaved; also recorded: efficiently hydrolyze
hydrolytic activity toward Glu-AMC ([5]; compared to Leu-AMC): efficiently cleaved; also recorded: efficiently hydrolyze
hydrolytic activity toward Pro-AMC ([5]; compared to Leu-AMC): more efficiently cleaved
hydrolytic activity toward Ser-AMC ([5]; compared to Leu-AMC): more efficiently cleaved
hydrolytic activity toward Ala-AMC in comparison to Leu-MCA used as a standard ([5]; substrate Ala-AMC 5 mM, 37° C., 60 min): 33.3%
hydrolytic activity toward Arg-AMC in comparison to Leu-MCA used as a standard ([5]; substrate Arg-AMC 5 mM, 37° C., 60 min): 1.9%
hydrolytic activity toward Asn-AMC in comparison to Leu-MCA used as a standard ([5]; substrate Asn-AMC 5 mM, 37° C., 60 min): 114.6%
hydrolytic activity toward Asp-AMC in comparison to Leu-MCA used as a standard ([5]; substrate Asp-AMC 5 mM, 37° C., 60 min): 3.8%
hydrolytic activity toward Cys-AMC in comparison to Leu-MCA used as a standard ([5]; substrate Cys-AMC 5 mM, 37° C., 60 min): 14.9%
hydrolytic activity toward Gln-AMC in comparison to Leu-MCA used as a standard ([5]; substrate Gln-AMC 5 mM, 37° C., 60 min): 49.9%
hydrolytic activity toward Glu-AMC in comparison to Leu-MCA used as a standard ([5]; substrate Glu-AMC 5 mM, 37° C., 60 min): 3.7%
hydrolytic activity toward Gly-AMC in comparison to Leu-MCA used as a standard ([5]; substrate Gly-AMC 5 mM, 37° C., 60 min): 3.3%
hydrolytic activity toward Gly-Pro-AMC in comparison to Leu-MCA used as a standard ([5]; substrate Gly-Pro-AMC 5 mM, 37° C., 60 min): 7.2%
hydrolytic activity toward His-AMC in comparison to Leu-MCA used as a standard ([5]; substrate His-AMC 5 mM, 37° C., 60 min): 0.6%
hydrolytic activity toward Hyp-AMC in comparison to Leu-MCA used as a standard ([5]; substrate Hyp-AMC 5 mM, 37° C., 60 min): 14.2%
hydrolytic activity toward Ile-AMC in comparison to Leu-MCA used as a standard ([5]; substrate Ile-AMC 5 mM, 37° C., 60 min): 6.4%
hydrolysis of Leu-AMC ([5]; substrate Leu-AMC): efficiently hydrolyzed; also recorded: common preference
hydrolytic activity toward Leu-AMC in comparison to Leu-MCA used as a standard ([5]; substrate Leu-AMC 5 mM, 37° C., 60 min): 100.0%
hydrolytic activity toward Lys-AMC in comparison to Leu-MCA used as a standard ([5]; substrate Lys-AMC 5 mM, 37° C., 60 min): 4.6%
hydrolytic activity toward Met-AMC in comparison to Leu-MCA used as a standard ([5]; substrate Met-AMC 5 mM, 37° C., 60 min): 119.7%
hydrolytic activity toward Phe-AMC in comparison to Leu-MCA used as a standard ([5]; substrate Phe-AMC 5 mM, 37° C., 60 min): 17.1%
hydrolytic activity toward Pro-AMC in comparison to Leu-MCA used as a standard ([5]; substrate Pro-AMC 5 mM, 37° C., 60 min): 21.4%
hydrolytic activity toward Pyr-AMC in comparison to Leu-MCA used as a standard ([5]; substrate Pyr-AMC 5 mM, 37° C., 60 min): 0.0%
hydrolytic activity toward Ser-AMC in comparison to Leu-MCA used as a standard ([5]; substrate Ser-AMC 5 mM, 37° C., 60 min): 26.1%
hydrolytic activity toward Thr-AMC in comparison to Leu-MCA used as a standard ([5]; substrate Thr-AMC 5 mM, 37° C., 60 min): 0.9%
hydrolytic activity toward Val-AMC in comparison to Leu-MCA used as a standard ([5]; substrate Val-AMC 5 mM, 37° C., 60 min): 4.8%
hydrolytic activity toward Lys(Abz)Pro-PropNA in comparison to Leu-MCA used as a standard [6]: 0.0%
digestion of gliadin 14mer, supplemented with ruDPPIV [1]: complete breakdown
digestion of gliadin 14mer, enzyme alone [1]: not digested
digestion of gliadin 33mer, mixed with ruDPPIV ([2]; enzyme plus ruDPPIV (DPPIV)): totally digested; also recorded: same HPLC pattern
degradation of gliadin 33mer, enzyme alone ([2]; within 4 h): less than 50%
N-terminal cleavage of Gly-Ser-proNPY (Gly-Ser-proNPY): cleavage of the two N-terminal residues Gly-Ser
removal of N-terminal alanine from Ala-proNPY (Ala-proNPY): almost totally removed
digestion of denatured casein (denatured casein): sequentially digest
